target: afucosylated IgG-specific nanobody X0; assay: SPR; details: parent: est. 0; read off a plot

| Substance | other: log2 fold change in KD [log2] |
| --- | --- |
| afucosylated IgG1 Fc P329A | 0.03 |
| afucosylated IgG1 Fc I332A | 0.08 |
| afucosylated IgG1 Fc E269A | 0.95 |
| afucosylated IgG1 Fc L328A | -0.15 |
| afucosylated IgG1 Fc H268A | -1.5 |

Reference: publication PMC10195009
